Key:
[1] = molecular target: T1, huCD137-His (human CD137 with a C-terminal polyhistidine tag) (human, UniProt Q07011 24-186); assay: ELISA, huCD137-His coated, detection anti-NGAL-HRP
T1 construct: Bought; also called huCD137-His-Bio
Experimental: (§1) Recombinant huPD-L1-His or cyPD-L1-His (human or cynomolgus PD-L1 with a C-terminal polyhistidine tag, R&D Systems or Sino Biologics) at the concentration of 1 μg/mL in PBS was coated overnight on microtiter plates at 4° C. After washing with PBS-0.05% T (PBS supplemented with 0.05% (v/v) Tween 20), the plates were blocked with 2% BSA (w/v) in PBS-0.1% T (PBS supplemented with 0.1% (v/v) Tween 20) for 1 h at room temperature. […] Bound molecules under study were detected by incubation with 1:5000 diluted anti-human IgG Fc-HRP (Jackson Laboratory) in PBS-0.1% T-2% BSA. After an additional wash step, fluorogenic HRP substrate (QuantaBlu, Thermo) was added to each well and the fluorescence intensity was detected using a fluorescence microplate reader.
(§2) The same ELISA setup was also employed to determine the binding potency of fusion proteins to CD137, where huCD137-His (human CD137 with C-terminal polyhistidine tag, R&D Systems) or cyCD137-Fc (cynomolgus CD137 C-terminally fused to Fc) was instead coated on a microtiter plate. The testing agents were similarly titrated and bound agents were detected via anti-NGAL-HRP.

[2] = molecular target: T2, biotinylated huCD137-Fc (human CD137 Fc fusion) (human, UniProt Q07011 24-186, biotinylated); assay: competitive ELISA, antibody SEQ ID NOs: 28 and 29 coated (competitor), 1 nM huCD137-Fc-bio tracer, binder titrated
T2 construct: Bought; also called huCD137-Fc-bio
Experimental: The plates were washed five times after each incubation step with 100 μL PBS-0.05% T (PBS supplemented with 0.05% (v/v) Tween 20). The plates were blocked with 2% BSA (w/v) in PBS-0.1% T (PBS supplemented with 0.1% (v/v) Tween 20) for 1 h at room temperature and subsequently washed again. […] The mixtures of testing molecules and the tracer were added to the plates and incubated for 20 min at room temperature following by five washing steps with 100 μL PBS-0.05% T. Subsequently, a 1:5000 dilution of ExtrAvidin-HRP (Sigma-Aldrich) in PBS-0.1% T-2% BSA was added to the wells and incubated for 1 h. After an additional wash step, fluorogenic HRP substrate (QuantaBlu, Thermo) was added to each well, and the fluorescence intensity was detected using a fluorescence microplate reader.
Competition data for an exemplary experiment are shown in FIG. 14, where the x-axis represents testing molecule concentration and the y-axis represents the measured trace molecule concentration. The data were fit to a 1:1 sigmoidal curve, where the IC₅₀ value and the maximum signal were free parameters, and the slope was fixed to unity.

[3] = molecular target: T3, huPD-L1-His (human PD-L1 with a C-terminal polyhistidine tag) (human, UniProt Q9NZQ7 19-239); assay: ELISA, huPD-L1-His coated, detection anti-human IgG Fc-HRP per paragraph 264; the filing does not say that this reagent detects the lipocalin mutein alone
T3 construct: Bought; also called biotinylated huPD-L1-His

[4] = molecular target: T4, human CD137 expressed on cells (human, UniProt Q07011 24-255); assay: flow cytometry, Flp-In-CHO::huCD137 cells
T4 construct: whole, on cells; also called Flp-In-CHO::huCD137; NFκB-luc2/CD137 Jurkat cells
Experimental: (§3) The geometric means of the fluorescence intensity were used to calculate EC₅₀ values using nonlinear regression (shared bottom, SLOPE=1).
(§4) 5×10⁴ cells per well were incubated for 1 h in ice-cold PBS containing 5% fetal calf serum (PBS-FCS). A dilution series of the fusion proteins and control antibodies were added to the cells and incubated for 1 h on ice. Cells were washed twice with PBS and then incubated with a goat anti-hIgG Alexa647-labeled antibody for 30 min on ice. Cells were subsequently washed and analyzed using iQue Flow cytometer (Intellicyte Screener). Mean geometric fluorescent signals were plotted and fitted with Graphpad software using nonlinear regression (shared bottom, SLOPE=1).

[5] = molecular target: T5, human PD-L1 expressed on cells (human, UniProt Q9NZQ7 19-290); assay: flow cytometry, Flp-In-CHO::huPDL-1 cells
T5 construct: whole, on cells; also called Flp-In-CHO::huPDL-1; RKO cells
Experimental: as §3, §4

[6] = molecular target: T6, cynomolgus CD137 expressed on cells (cynomolgus, UniProt A9YYE7 24-254); assay: flow cytometry, Flp-In-CHO::cynoCD137 cells
T6 construct: also called Flp-In-CHO::cynoCD137
Experimental: as §3, §4

[7] = molecular target: T7, cynomolgus PD-L1 expressed on cells (cynomolgus); assay: flow cytometry, Flp-In-CHO::cynoPDL-1 cells
T7 construct: whole, on cells; also called Flp-In-CHO::cynoPDL-1
Experimental: as §3, §4

[8] = molecular target: T5, human PD-L1 expressed on cells; assay: flow cytometry, RKO tumor cells (PD-L1-positive)
Experimental: as §4
For flow cytometric analysis, RKO cells were incubated with fusion proteins and detected using a fluorescently labeled anti-human IgG antibody as described in Example 6.

[9] = molecular target: cyCD137-Fc (cynomolgus CD137 C-terminally fused to Fc) (cynomolgus); assay: ELISA, cyCD137-Fc coated, detection anti-NGAL-HRP
Experimental: as §1, §2

[10] = molecular target: T8, cyPD-L1-His (cynomolgus PD-L1 with a C-terminal polyhistidine tag) (cynomolgus); assay: ELISA, cyPD-L1-His coated, detection anti-human IgG Fc-HRP
T8 construct: Bought
Experimental: as §1

[11] = molecular target: T3, huPD-L1-His (human PD-L1 with a …); assay: ELISA, huPD-L1-His coated, detection anti-human IgG Fc-HRP
Experimental: as §1

[12] = molecular target: T9, huPD-L1-Fc (recombinant human PD-L1 Fc fusion) (human, UniProt Q9NZQ7 19-239); assay: competitive ELISA, huPD-1-His coated, 15 nM huPD-L1-Fc tracer, binder titrated
T9 construct: Bought; also called tracer huPD-L1-Fc
Experimental: Recombinant huPD-1-His (Acrobiosystems) in PBS (1 μg/mL) was coated overnight on microtiter plates at 4° C. The plates were washed five times after each incubation step with 100 μL PBS-0.05% T (PBS supplemented with 0.05% (v/v) Tween 20). The plates were blocked with 2% BSA (w/v) in PBS-0.1% T (PBS supplemented with 0.1% (v/v) Tween 20) for 1 h at room temperature and subsequently washed again. […] The mixtures of fusion proteins and the tracer were added to the plates and incubated for 20 min at room temperature following by five washing steps with 100 μL PBS-0.05% T. Subsequently, a 1:5000 dilution of goat-anti human IgG-Fc HRP (Jackson) was added to the wells and incubated for 1 h. After an additional wash step, fluorogenic HRP substrate (QuantaBlu, Thermo) was added to each well, and the fluorescence intensity was detected using a fluorescence microplate reader.

[13] = molecular target: T1, huCD137-His (human CD137 with a …); assay: SPR (Biacore), binder captured by anti-human IgG Fc, huCD137-His in solution, 25 C, 1:1 model
Experimental: (§5) The binding kinetics and affinity of exemplary fusion proteins to huPD-L1-His or huCD137-His (human PD-L1 or human CD137 with a C-terminal polyhistidine tag, R&D Systems) were determined by surface plasmon resonance (SPR) using a Biacore 8K or a Biacore T200 (GE Healthcare).
(§6) The anti-human IgG Fc antibody (GE Healthcare) was immobilized on a CM5 sensor chip using standard amine chemistry: the carboxyl groups on the chip were activated using 1-ethyl-3-(3-dimethylaminopropyl)-carbodiimide (EDC) and N-hydroxysuccinimide (NHS). Subsequently, anti-human IgG Fc antibody solution (GE Healthcare) at a concentration of 25 μg/mL in 10 mM sodium acetate (pH 5.0) was applied at a flow rate of 5 μL/min until an immobilization level of 6000-10000 resonance units (RU) was achieved. Residual non-reacted NHS-esters were blocked by passing a solution of 1M ethanolamine across the surface. The reference channel was treated in an analogous manner. […] After each capture step, the needle was washed.
(§7) Double referencing was used and the 1:1 binding model was used to fit the raw data.

[14] = molecular target: T3, huPD-L1-His (human PD-L1 with a …); assay: SPR (Biacore), binder captured by anti-human IgG Fc, huPD-L1-His in solution, 25 C, 1:1 model
Experimental: as §5, §6, §7

[15] = molecular target: T1, huCD137-His (human CD137 with a …); assay: dual-binding ELISA, huCD137-His coated, binder titrated, detection with biotinylated huPD-L1-His
[16] = molecular target: T3, huPD-L1-His (human PD-L1 with a …); assay: dual-binding ELISA, huPD-L1-His coated, binder titrated, detection with biotinylated huCD137-His
Experimental: Recombinant huPD-L1-His (R&D Systems) in PBS (1 μg/mL) was coated overnight on microtiter plates at 4° C. The plates were washed five times after each incubation step with 100 μL PBS-0.05% T. The plates were blocked with 2% BSA (w/v) in PBS-0.1% T for 1 h at room temperature and subsequently washed again. Different concentrations of tested fusion proteins were added to the wells and incubated for 1 h at room temperature, followed by a wash step. […] After washing, a 1:5000 dilution of ExtrAvidin-HRP (Sigma-Aldrich) in PBS-0.1% T-2% BSA was added to the wells and incubated for 1 h. After an additional wash step, fluorogenic HRP substrate (QuantaBlu, Thermo) was added to each well, and the fluorescence intensity was detected using a fluorescence microplate reader.

B1: CD137-specific lipocalin mutein SEQ ID NO: 42 (designed binder)
chain: QDSTSDLIPAPPLSKVPLQQNFQDNQFHGKWYVVGQAGNIRLREDKDPIKMMATIYELKEDKSYDVTMVKFDDKKCMYDIWTFVPGSQPGEFTLGKIKSFPGHTSSLVRVVSTNYNQHAMVFFKFVFQNREEFYITLYGRTKELTSELKENFIRFSKSLGLPENHIVFPVPIDQCIDG
notes: Mutein of mature human NGAL
Question: With B1 as the binder, how does the EC50 [1] read?
Answer: 0.27 nM

Question: What about the IC50 [2] of the same binder?
Answer: 2.6 nM

Question: Does B1 bind [3]?
Answer: no binding (tested: 100 nM)

B2: fusion protein SEQ ID NOs: 90 and 91 (bispecific antibody, human IgG4 S228P, kappa, F234A L235A)
heavy: not shown
light: EIVLTQSPDTLSVTPKEKVTLTCRASQSIGTNIHWFQQKPGQSPKLLIKYASESISGVPSRFSGSGSGTDFTLTINSVEAEDAATYYCQQSNSWPYTFGQGTKLEIKRTVAAPSVFIFPPSDEQLKSGTASVVCLLNNFYPREAKVQWKVDNALQSGNSQESVTEQDSKDSTYSLSSTLTLSKADYEKHKVYACEVTHQGLSSPVTKSFNRGECGGGGSGGGGSGGGGSQDSTSDLIPAPPLSKVPLQQNFQDNQFHGKWYVVGQAGNIRLREDKDPIKMMATIYELKEDKSYDVTMVKFDDKKCMYDIWTFVPGSQPGEFTLGKIKSFPGHTSSLVRVVSTNYNQHAMVFFKFVFQNREEFYITLYGRTKELTSELKENFIRFSKSLGLPENHIVFPVPIDQCIDG
notes: Antibody-lipocalin mutein fusion, IgG4 S228P backbone
Question: How did the EC50 [4] turn out when B2 was run?
Answer: 4.69 nM

Question: And the EC50 [5]?
Answer: 4.09 nM

Question: What about the EC50 [6] of the same binder?
Answer: 3.66 nM

Question: What about the EC50 [7] of the same binder?
Answer: 3.37 nM

Question: And the EC50 [8]?
Answer: 0.53 nM

Question: What about the EC50 [9] of the same binder?
Answer: 0.21 nM

Question: What about the EC50 [1] of the same binder?
Answer: 0.14 nM

Question: And the EC50 [10]?
Answer: 0.17 nM

Question: And the EC50 [11]?
Answer: 0.2 nM

Question: And the IC50 [12]?
Answer: 2.8 nM

Question: And the Kd [13]?
Answer: 5.73 nM

Question: What about the koff [13] of the same binder?
Answer: 0.000224 s⁻¹

Question: What about the kon [13] of the same binder?
Answer: 39100 M⁻¹ s⁻¹

Question: And the Kd [14]?
Answer: 0.537 nM

Question: What about the koff [14] of the same binder?
Answer: 0.000861 s⁻¹

Question: What about the kon [14] of the same binder?
Answer: 1.6e+06 M⁻¹ s⁻¹

Question: And the EC50 [15]?
Answer: 2.3 nM

Question: And the EC50 [16]?
Answer: 0.49 nM

Reference: US20210363257A1 (Pieris, published 2021)
